Laboratory results as given in patent publication US20230015713A1.

Molecular target: recombinant human FcγRIIa (131H)-glutathione-S-transferase (human) (UniProt P12318)
Test: AlphaScreen competition: the antibody inhibits binding of FcγRIIa (131H)-GST to biotinylated human IgG1 (m6)

Substance	IC50 (read off the curve)
wild-type romosozumab (antibody)	100 nM
romosozumab PARG (SEQ ID NO: 8) C-terminal variant (antibody)	20 nM
